Test results taken from patent USRE50282 (KAGOSHIMA UNIVERSITY, dated 2025).
Bridges are numbered along the chain shown (N, C = ends). Primed or numbered codes have the meaning given here. Where no end group is shown, it is not given here. The star is where a group is joined. DSS = disuccinimidyl suberate, reactive NHS group, O=C(CCCCCCC(=O)*)ON1C(=O)CCC1=O; DSG = disuccinimidyl glutarate, reactive NHS group, O=C(CCCC(=O)*)ON1C(=O)CCC1=O; Biotin = O=C1N[C@H]2[C@H](CS[C@H]2CCCCC(=O)*)N1; PEG4′ = not defined here

Legend:
human IgG Fc = target: T1, human IgG Fc (human, UniProt P01857-1 108-330 = IgG part); experiment: X-ray crystallography of the Fc/IgG-binding peptide conjugate
T1 construct: domain: Fc; also called human IgG1 Fc

human serum albumin = target: T2, human serum albumin (human, UniProt P02768 25-609); experiment: covalent labeling reaction, SDS-PAGE and Western blotting with SA-conjugated HRP
T2 construct: also called HSA; HAS

bovine serum albumin = target: T3, bovine serum albumin (bovine, UniProt P02769 25-607); experiment: ELISA, BSA used as blocking agent, biotinylated peptide detected with SA-HRP
T3 construct: also called BSA
T3 sequence (P02769 25-607 limits assumed): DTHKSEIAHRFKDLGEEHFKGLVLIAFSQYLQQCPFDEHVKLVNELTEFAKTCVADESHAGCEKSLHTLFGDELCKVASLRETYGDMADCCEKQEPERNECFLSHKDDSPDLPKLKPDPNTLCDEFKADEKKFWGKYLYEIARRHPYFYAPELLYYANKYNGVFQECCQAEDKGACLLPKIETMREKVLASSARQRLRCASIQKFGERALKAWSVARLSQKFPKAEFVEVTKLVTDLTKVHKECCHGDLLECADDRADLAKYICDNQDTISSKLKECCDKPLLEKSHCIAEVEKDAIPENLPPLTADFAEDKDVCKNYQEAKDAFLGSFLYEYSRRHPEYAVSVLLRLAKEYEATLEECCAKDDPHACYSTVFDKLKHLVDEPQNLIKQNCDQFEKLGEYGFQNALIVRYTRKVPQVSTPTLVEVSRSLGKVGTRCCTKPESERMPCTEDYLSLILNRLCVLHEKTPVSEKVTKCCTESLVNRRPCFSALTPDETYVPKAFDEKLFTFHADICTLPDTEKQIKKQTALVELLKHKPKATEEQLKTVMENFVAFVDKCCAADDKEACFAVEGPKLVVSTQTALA

Binder | binding result (human IgG Fc) | binding result (human serum albumin) | binding result (bovine serum albumin)
GXDCAYHRGELVWCTXH-NH2 (disulfide 4-14, 2-16; not fully specified (residues 2, 16); printed as G(HC)DCAYHRGELVWCT(HC)H-NH2) [cyclic homocysteine peptide G(HC)DCAYHRGELVWCT(HC)H-NH2] | binds |  | 
{Biotin-PEG4′}-GDDCAYHK(DSG)GELVWCTFH-NH2 (disulfide 4-14, also called labeled reagent peptide) [N-terminally biotin-PEG4-added IgG-binding peptide (Type I(R8K)) modified with DSG] |  | no binding | 
{Biotin-PEG4′}-GDDCAYHK(DSS)GELVWCTFH-NH2 (disulfide 4-14, also called DSS R8K) [N-terminally biotin-PEG4-added IgG-binding peptide (Type I(R8K)) modified with DSS] |  | no binding | no binding (tested: molar ratio up to 10)
